From patent publication US20150210738, “MOLECULAR SLEDS AND USES […]” (The Broad Institute, Inc., published 2015)
No end group written: not given here.

T1: 8-Actin-C (beta-actin C-terminal peptide)
T1 chain: SIVHRKC(Cy3B)F

T2: random peptide (scrambled pVIc) (synthetic)
T2 chain: SFRRCGLRQVK

T3: pVIc (C-terminal peptide of pVI) (Human adenovirus 2, UniProt P03274)
T3 chain: GVQSLKRRRCF

B1: 12-mer dsDNA (dsDNA)
DNA 1: GACGACTAGGAT
DNA 2: ATCCTAGTCGTC
B2: 18-mer dsDNA (dsDNA)
DNA 1: CAGGAAACAGCTATGACC
DNA 2: GGTCATAGCTGTTTCCTG

Tests used:
[1] = target: T1, 8-Actin-C (beta-actin C-terminal …); experiment: FP; Cy3B-peptide, pH 7; settings: protein: synthetic; tags: synthetic peptide; Cy3B at Cys7'; label: 5'-fluorescein (unlabeled with Cy3B-labeled protein)
[2] = target: T2, random peptide (scrambled pVIc); experiment: FP; scrambled pVIc; does not slide on DNA; settings: tags: Cy3B at Cys5'; label: 5'-fluorescein (unlabeled with Cy3B-labeled protein)
[3] = target: T3, pVIc (C-terminal peptide of pVI); experiment: FP; Cy3B-pVIc, 20 mM Hepes pH 7, 0.025% DDM, 10 mM NaCl; 7 bp site; settings: protein: synthetic; tags: synthetic peptide; Cy3B at Cys10' in pH 7 and sliding assays; label: 5'-fluorescein (unlabeled with Cy3B-labeled protein)
[4] = target: pVI (precursor to protein VI) (Human adenovirus 2, UniProt P03274 P03274:1-250); experiment: FP; 0.02 M NaCl, pH 8; 155, 328, 449, 1044 nM at 0.03, 0.04, 0.05, 0.06 M NaCl; 2.9 ion pairs; settings: label: 5'-fluorescein (unlabeled with Cy3B-labeled protein)
pVI (precursor to protein VI), sequence (P03274 whole entry, one chain of several): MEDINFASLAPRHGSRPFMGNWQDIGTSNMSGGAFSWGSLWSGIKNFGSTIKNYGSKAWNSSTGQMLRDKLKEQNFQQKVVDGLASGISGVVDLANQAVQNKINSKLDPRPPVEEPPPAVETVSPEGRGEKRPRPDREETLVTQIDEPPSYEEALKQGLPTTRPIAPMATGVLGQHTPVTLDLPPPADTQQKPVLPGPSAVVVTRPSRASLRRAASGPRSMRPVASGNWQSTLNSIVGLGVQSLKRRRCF

[5] = target: streptavidin-Alexa Fluor 546 (UniProt P22629 P22629:25-183); experiment: FRET; streptavidin alone does not bind; settings: tags: Alexa Fluor 546; Invitrogen; chain copies: 4; label: 5'-fluorescein
streptavidin-Alexa Fluor 546, sequence (P22629 25-183, one chain of several): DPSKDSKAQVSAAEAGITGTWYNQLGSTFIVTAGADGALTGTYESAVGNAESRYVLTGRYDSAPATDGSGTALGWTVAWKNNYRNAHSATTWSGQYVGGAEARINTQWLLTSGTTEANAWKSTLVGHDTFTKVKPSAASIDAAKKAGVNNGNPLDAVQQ
From the text: The relative fluorescence intensity is the fluorescence intensity at a specific concentration of acceptor divided by I₀ which is the initial fluorescence intensity, i.e. the intensity of the donor in the absence of acceptor. The line through the closed circles represents the nonlinear regression fit of the experimental data to a 1:1 ligand-receptor model. […] Both curves were corrected for inner filter effects, which were less than 10% at the highest concentration of acceptor.
Steady state fluorescence measurements were measured with an ISS PC1 spectrofluorometer (ISS, Champaign, Ill.) with a 300-W xenon arc lamp and 19 amp lamp current. […] The solution was mixed and allowed to equilibrate for 2 minutes before measuring the fluorescence intensity for a maximum of 10 seconds (corresponds to an average of eleven measurements).

[6] = target: (pVIc-biotin):streptavidin complex (Human adenovirus 2 / Streptomyces …, UniProt P03274;P22629 P03274:240-250,P22629:25-183); experiment: FRET quenching, 20 mM Na phosphate pH 7.5, 0.05% DDM; settings: tags: pVIc Cys10' PEG-biotin, streptavidin-Alexa Fluor 546 (Invitrogen); label: 5'-fluorescein
(pVIc-biotin):streptavidin complex, sequence (P22629 25-183, one chain of several): as above

Binder	Kd [1] [µM]	Kd [2] [µM]	Kd [3] [µM]	Kd [4] [µM]	binding result [5]	Kd [6] [µM]
B1	0.005	0.646	0.264	0.055	–	–
B2	–	–	–	–	no binding	0.035
